Assay results taken from PMC10516938, “Conformational dynamics of cohesin/Scc2 loading complex are regulated by Smc3 acetylation and ATP binding” (Nature Communications, 2023).
Substitutions are numbered along the chain they refer to.

T1: Smc3 K1004C E1155Q (S. cerevisiae, UniProt P47037 1-1230, K1004C | E1155Q)
T1 construct: Smc3, S. cerevisiae; also called EQ mutant version of Smc3^K1004C; source: S. cerevisiae W303, ectopically expressed, late G1 arrested cells, whole-cell extract
T1 sequence (looked up): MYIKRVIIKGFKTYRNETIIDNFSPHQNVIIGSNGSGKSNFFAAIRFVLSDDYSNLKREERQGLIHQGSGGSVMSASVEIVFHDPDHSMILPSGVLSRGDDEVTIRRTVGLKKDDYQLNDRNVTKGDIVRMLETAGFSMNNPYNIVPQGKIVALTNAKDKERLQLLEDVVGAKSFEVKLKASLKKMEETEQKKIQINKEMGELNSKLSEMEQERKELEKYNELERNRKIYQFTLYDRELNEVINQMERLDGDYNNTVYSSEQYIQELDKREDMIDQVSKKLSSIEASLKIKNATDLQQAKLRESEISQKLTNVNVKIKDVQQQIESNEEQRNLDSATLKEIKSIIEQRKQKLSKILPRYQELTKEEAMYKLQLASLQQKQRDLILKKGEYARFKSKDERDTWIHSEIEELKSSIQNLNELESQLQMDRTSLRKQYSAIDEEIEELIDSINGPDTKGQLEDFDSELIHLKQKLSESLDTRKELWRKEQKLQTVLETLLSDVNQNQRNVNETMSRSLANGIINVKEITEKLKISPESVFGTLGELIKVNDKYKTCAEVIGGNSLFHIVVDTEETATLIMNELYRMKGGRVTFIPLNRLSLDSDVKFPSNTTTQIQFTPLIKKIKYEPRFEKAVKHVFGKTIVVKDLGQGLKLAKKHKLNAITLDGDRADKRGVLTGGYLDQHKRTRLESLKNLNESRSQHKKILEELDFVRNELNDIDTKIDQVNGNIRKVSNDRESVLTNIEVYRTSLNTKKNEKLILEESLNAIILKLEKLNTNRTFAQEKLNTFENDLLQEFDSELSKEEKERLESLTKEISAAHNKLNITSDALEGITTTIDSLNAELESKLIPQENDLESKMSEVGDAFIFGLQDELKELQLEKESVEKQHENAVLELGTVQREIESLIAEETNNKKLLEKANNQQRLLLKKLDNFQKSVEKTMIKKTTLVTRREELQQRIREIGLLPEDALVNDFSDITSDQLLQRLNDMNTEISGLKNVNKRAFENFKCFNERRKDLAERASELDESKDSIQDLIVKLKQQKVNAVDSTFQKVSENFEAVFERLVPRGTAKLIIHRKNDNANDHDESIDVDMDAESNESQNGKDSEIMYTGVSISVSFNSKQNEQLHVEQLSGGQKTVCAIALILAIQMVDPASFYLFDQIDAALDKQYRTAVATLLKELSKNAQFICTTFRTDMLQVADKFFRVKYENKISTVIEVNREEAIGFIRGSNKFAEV

T2: Smc3^QQ R1008I Q67C (S. cerevisiae, UniProt P47037 1-1230, Q67C | K112Q | K113Q | R1008I)
T2 construct: Smc3, S. cerevisiae; also called smc3-QQ Q67C with R1008I; source: S. cerevisiae W303, late G1 arrested cells, whole-cell extract
T2 sequence (looked up): T1 sequence (looked up) with Q67C, K112Q, K113Q, C1004K, R1008I, Q1155E

B1: Scc2 D369C (natural protein, S. cerevisiae, UniProt Q04002 1-1493, looked up)
chain: MSYPGKDKNIPGRIIEALEDLPLSYLVPKDGLAALVNAPMRVSLPFDKTIFTSADDGRDVNINVLGTANSTTSSIKNEAEKERLVFKRPSNFTSSANSVDYVPTNFLEGLSPLAQSVLSTHKGLNDSINIEKKSEIVSRPEAKHKLESVTSNAGNLSFNDNSSNKKTKTSTGVTMTQANLAEQYLNDLKNILDIVGFDQNSAEIGNIEYWLQLPNKKFVLTTNCLTKLQMTIKNITDNPQLSNSIEITWLLRLLDVMVCNIKFSKSSLKMGLDDSMLRYIALLSTIVLFNIFLLGKNDSNLHRESYIMEPVNFLSDLIESLKILTIEYGSLKIEFDTFQEALELLPKYIRNGPFLDDNVTAKLVYIFSCLLMNNDIEATTNIQFQSFWDNVKRISSDILVSLFGSFDQQRGFIIEELLSHIEKLPTKRIQKKLRKVGNQNIYITDFTFTLMSMLENINCYSFCNQMKDIAPENIDLLKNEYKKQEEFLFNIVEHINDTILERFFKNPSALRYVIDNFVQDLLLLISSPQWPVTEKILSSLLKRLLSVYSPSMQVSANIETICLQLIGNIGSTIFDIKCSTRDHEDNNLIKMINYPETLPHFFKSFEECIAYNETIKCRRSATRFLWNLRLGTILILEEYTKDAKEQIITVDNELKKILEQIKDGGLGPELENREADFSTIKLDYFSILHAFELLNLYDPYLKLILSLLAKDKIKLRSTAIKCLSMLASKDKVILSNPMVKETIHRRLNDSSASVKDAILDLVSINSSYFEFYQQINNNYNDDSIMVRKHVLRINEKMYDETNDIVTKVYVIARILMKIEDEEDNIIDMARLILLNRWILKVHEVLDQPEKLKEISSSVLLVMSRVAIMNEKCSQLFDLFLNFYLLNKEAHSKEAYDKITHVLTILTDFLVQKIVELNSDDTNEKNSIVDKQNFLNLLAKFADSTVSFLTKDHITALYPYMVSDEKSDFHYYILQVFRCTFEKLANFKQKFLYDLETTLLSRLPKMNVREIDEAMPLIWSVATHRHDTARVAKACSSCLSHLHPYINKANNEEAAIVVDGKLQRLIYLSTGFARFCFPKPSNDKIAFLQEGETLYEHITKCLLVLSKDKITHVIRRVAVKNLTKLCGNHPKLFNSRHVLHLLDKEFQSDQLDIKLVILESLYDLFLLEERKSVRNTGVNSTLSSNSILKKKLLKTNRVEFANDGVCSALATRFLDNILQLCLLRDLKNSLVAIRLLKLILKFGYTNPSHSIPTVIALFASTSQYIRHVAYELLEDLFEKYETLVFSSLSRGVTKAIHYSIHTDEKYYYKHDHFLSLLEKLCGTGKKNGPKFFKVLKRIMQSYLDDITDLTSTNSSVQKSIFVLCTNISNITFVSQYDLVSLLKTIDLTTDRLKEVIMDEIGDNVSSLSVSEEKLSGIILIQLSLQDLGTYLLHLYGLRDDVLLLDIVEESELKNKQLPAKKPDISKFSAQLENIEQYSSNGKLLTYFRKHVKDT
notes: Scc2, S. cerevisiae; source: S. cerevisiae W303, in vivo, whole-cell extract
B2: Scc2 T1175C (natural protein, S. cerevisiae, UniProt Q04002 1-1493, looked up)
chain: B1 chain with C369D, T1175C
notes: as for B1

Assays:
Smc3 K1004C E1155Q = target: T1, Smc3 K1004C E1155Q; test: cross-linking; in vivo BMOE cross-link of cysteine pairs in yeast cells arrested in late G1 by non-degradable Sic1(9m); Scc1-PK immunoprecipitated, western blot, band intensities quantified; conditions: partners not purified
Smc3^QQ R1008I Q67C = target: T2, Smc3^QQ R1008I Q67C; test: as above; conditions: partners not purified

| Binder | fold change of the crosslink against wild-type Smc3 (K1004C) (Smc3 K1004C E1155Q) [fold] | crosslink relative to wild-type Smc3 (Smc3^QQ R1008I Q67C) [%] |
| --- | --- | --- |
| B1 | ~10 |  |
| B2 |  | ~40 |
